Source: the supplement of paper PMC10567573

B1: TMEM175 (parent)
chain: QTSAFARQPRDELERVRVSCTIIF
B2: EHMT1 (parent)
chain: SARQGELQKVLLMLVDGIDPNFKM

Variants of: B1
Assay: protein stability index of a GFP-peptide fusion (GPS, HEK-293T) (PSI 1-6); higher = more stable
Conditions: c terminus: a fixed tail appended
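Note: lentivirally expressed fusions sorted by FACS into six bins by GFP to DsRed ratio, PSI derived from sequencing read proportions per bin multiplied by bin number.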

Protein stability index, by site and new letter:
T2: L 1.55, F 2.49, M 1.89, W 3.26, N 1.66, D 3.37, A 1.83, S 3.61, Q 4.14, H 2.22, Y 3.16
A6: R 1.84, M 1.74, N 2.57, H 2.09, D 2.35, Y 2.68, F 1.36, C 3.04, W 2.34, K 2.11, E 3.06, V 2.9, T 1.44, L 1.6
A4: T 2.06, F 1.88, H 1.46, E 2.9, G 2.95, V 1.7, N 1.5, I 1.96, S 3.97, D 3.36, M 3.56, K 1.26, L 3.63, R 2.89, Y 1.46, P 3.2
R7: C 3.01, A 2.46
S3: E 2.02, Y 2.69, H 1.69, Q 2.21, F 2.04, N 2.02, L 1.05, R 1.06, A 3.58, K 2.62, G 1.91, W 2.24, I 2.13, M 3.41
F5: Q 2.27, E 1.91, D 1.69, I 1.72, S 1.94, P 2.48, L 1.9, R 1.38, N 1.65, K 1.34, A 1.75, T 2.01, H 1.48, M 2.25, Y 2.54, C 4.13, V 2.15
Q1: E 2.25, M 1.64, L 1.38, Y 3.11, N 3.4, K 2.24, H 1.6, S 2.17, A 3.97, P 2.32, G 3.41, F 3.36, D 1.63

Variants of: B2
Assay: as above
Conditions: c terminus: a fixed tail appended

Protein stability index, by site and new letter:
M24: E 2.18, G 1.23, C 2.05, D 3.33, P 2.6, I 1.77, Q 1.84, A 2.04, L 1.93, K 2.42, N 1.48, Y 1.9, T 1.42, H 1.19, R 1.8
M13: P 3.74, G 2.37, R 1.73, D 2.97, A 1.73, L 2.11, F 1.83, Y 2.47, S 2, Q 2.09, I 1.04, K 1.89, E 3.12, H 1.88, T 2.35, N 2.46
D19: K 1.81, W 2.35, T 3.29, A 3.05, N 1.64, H 3.59, E 1.5, S 2.5, Y 2.73, G 2.8
Q8: P 1.76, Y 1.76, T 2.02, S 1.87
F22: M 1.13, P 1.76, V 1.18, T 2.21, A 1.65, G 2.71, N 1.56, R 1.52, W 2.49, D 2.01, E 2.69, I 2.09, C 1.82, Q 1.76, L 1.83, K 1.89, S 2.71, Y 1.39, H 1.56
L14: T 1.7, R 2.61, I 1.98, H 2.38, N 3.02, M 3.99, D 3.47, V 2.53, Y 1.76, E 3.22, S 3.03, Q 2.54, A 2.39, P 3.21, W 1.79, F 1.93, K 2.74, G 2.36, C 1.46
I18: F 1.81, D 2.22, S 1.97, R 1.66, P 1.06, V 1.59, Y 2.76, L 2.07, K 1.46, H 2.42, Q 3.19, C 2.47, A 1.18, E 2.49, W 2.54, N 2.24, T 2.22
G17: H 1.87, C 2, F 3.49, E 2.08, N 2.78, P 1.97, S 2.3, L 2.07, Y 2.38, K 1.36, V 3.87, D 1.36, M 1.78, Q 1.61
V10: D 3.36, A 2.33, W 1.77, H 2.16, L 1.25, G 1.94, K 2.47, R 1.88, S 2.29, M 2.12, C 1.77, E 3.02, F 4.02, Q 1.72, I 2.01, T 1.99, Y 3.4, P 2.43, N 3.15
V15: N 2.56, E 2.54, C 1.64, K 2.25, P 2.39, Y 1.68, I 1.72, F 3.86, R 1.65, G 2, L 1.49, W 2.75, Q 2.17, H 1.66, M 1.59, A 2.07, D 2.69, S 1.83, T 1.26
L12: F 3.06, D 2.79, E 3.04, N 2.42, G 2.15, Q 2.02, K 1.12, R 2.12, A 1.4, V 1.66, H 2.39, C 2.31, M 3.16, S 2.18, T 1.28, P 3.64
P20: T 1.27, A 2.66, R 1.5, D 1.43, K 1.76, Q 1.83, F 2.59, M 2.91, G 1.09, H 1.75
K9: Q 2.37, H 1.62, V 4.22, A 2.51, D 1.62, N 1.91, F 3.96, T 2.9, S 2.79, P 1.95, R 1.68
K23: D 2.17, I 1.59, H 2.78, N 1.3, A 2.4, Y 1.94, V 2.81, P 2.18, L 1.88, G 1.19, Q 2.39, T 2.02, R 2.82, E 1.21
L11: S 2.45, H 2.15, Y 1.65, F 2.49, C 1.99, A 2.11, T 2.36, G 3.6, I 2.1, V 2.7, E 3.28, M 1.38, N 3.23, K 2.69, D 3.35, Q 2.19, R 2.53, P 3.13
N21: G 3.57, M 2.24, W 3.96, T 1.98, Y 2.93, L 3.55, H 1.97, K 1.96, R 1.26, D 1.41, Q 1.41, I 1.93
D16: T 2.8, Q 2.49, I 1.69, W 1.96, M 2.7, F 1.6, N 2.72, K 2.45, C 1.61, L 2.31, E 1.51, V 2.27, P 2.41, A 2.11
